# Results: patent publication US20150203575A1 (Genentech, published 2015)
# T1: human NPDC1 expressed on cells (human, UniProt Q9NQX5 35-325)
# T1 construct: also called hNPDC1; hNPCD1
# T1 sequence: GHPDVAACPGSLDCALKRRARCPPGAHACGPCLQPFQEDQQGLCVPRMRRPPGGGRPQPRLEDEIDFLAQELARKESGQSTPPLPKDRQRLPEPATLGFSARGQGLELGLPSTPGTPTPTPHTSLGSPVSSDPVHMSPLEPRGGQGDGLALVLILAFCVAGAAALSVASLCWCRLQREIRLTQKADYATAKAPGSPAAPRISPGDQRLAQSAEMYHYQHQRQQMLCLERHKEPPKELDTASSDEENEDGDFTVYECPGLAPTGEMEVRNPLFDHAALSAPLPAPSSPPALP
# T2: mouse CD99 expressed on 293T cells (mouse, UniProt Q8VCN6 29-175, sialylated O-glycans at Thr-45 and Thr-50 (cited as relevant for PILRα recognition))
# T2 construct: whole, on cells; also called mCD99; mCD99 transfectants
# T2 sequence (looked up): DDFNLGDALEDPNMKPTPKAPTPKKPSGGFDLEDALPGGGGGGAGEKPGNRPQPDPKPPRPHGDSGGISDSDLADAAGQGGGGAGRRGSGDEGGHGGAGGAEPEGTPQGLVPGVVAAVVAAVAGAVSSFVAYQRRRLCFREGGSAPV
# T3: CLEC4G expressed on cells (human, UniProt Q6UXB4 1-293)
# T3 construct: Clone of the Origene human cDNA library; also called C type lectin superfamily 4 member G
# T3 sequence: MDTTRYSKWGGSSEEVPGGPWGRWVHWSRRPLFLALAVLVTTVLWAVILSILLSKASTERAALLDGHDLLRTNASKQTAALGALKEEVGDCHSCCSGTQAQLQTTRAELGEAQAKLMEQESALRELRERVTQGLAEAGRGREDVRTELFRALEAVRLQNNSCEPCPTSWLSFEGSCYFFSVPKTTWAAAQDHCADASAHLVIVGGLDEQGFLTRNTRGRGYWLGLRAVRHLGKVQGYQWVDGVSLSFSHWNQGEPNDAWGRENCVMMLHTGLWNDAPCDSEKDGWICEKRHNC
# T4: MAG expressed on cells (human, UniProt P20916 20-626)
# T4 construct: Clone of the Origene human cDNA library; also called Myelin associated glycoprotein; SIGLEC4A
# T4 sequence: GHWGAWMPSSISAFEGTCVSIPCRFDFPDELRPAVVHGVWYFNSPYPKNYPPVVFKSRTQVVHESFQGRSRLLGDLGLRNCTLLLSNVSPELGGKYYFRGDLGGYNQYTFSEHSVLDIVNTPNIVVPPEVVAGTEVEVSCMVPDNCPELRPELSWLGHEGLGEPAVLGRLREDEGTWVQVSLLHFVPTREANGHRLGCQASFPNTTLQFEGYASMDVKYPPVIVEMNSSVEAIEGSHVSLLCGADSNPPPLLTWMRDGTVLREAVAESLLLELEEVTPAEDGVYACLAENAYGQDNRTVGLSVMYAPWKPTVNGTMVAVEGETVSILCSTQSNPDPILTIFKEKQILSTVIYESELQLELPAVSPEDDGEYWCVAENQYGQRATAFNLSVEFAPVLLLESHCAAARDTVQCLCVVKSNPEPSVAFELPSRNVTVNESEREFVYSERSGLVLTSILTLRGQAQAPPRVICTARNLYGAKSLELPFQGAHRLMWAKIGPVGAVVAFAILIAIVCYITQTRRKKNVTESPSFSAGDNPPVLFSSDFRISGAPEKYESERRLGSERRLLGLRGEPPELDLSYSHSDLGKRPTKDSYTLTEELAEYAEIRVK
# T5: IL-2Ra expressed on cells (human, UniProt P01589 22-272)
# T5 construct: Clone of the Origene human cDNA library; also called Interleukin 2 receptor alpha
# T5 sequence: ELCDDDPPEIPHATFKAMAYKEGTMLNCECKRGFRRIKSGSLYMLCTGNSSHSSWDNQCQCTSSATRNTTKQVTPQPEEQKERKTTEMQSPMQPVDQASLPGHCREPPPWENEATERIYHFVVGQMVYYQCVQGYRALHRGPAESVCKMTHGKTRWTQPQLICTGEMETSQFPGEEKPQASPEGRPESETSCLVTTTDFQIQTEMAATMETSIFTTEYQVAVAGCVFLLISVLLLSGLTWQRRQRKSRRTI
# T6: FceRII expressed on cells (human, UniProt P06734 1-321)
# T6 construct: Clone of the Origene human cDNA library; also called FcRII
# T6 sequence: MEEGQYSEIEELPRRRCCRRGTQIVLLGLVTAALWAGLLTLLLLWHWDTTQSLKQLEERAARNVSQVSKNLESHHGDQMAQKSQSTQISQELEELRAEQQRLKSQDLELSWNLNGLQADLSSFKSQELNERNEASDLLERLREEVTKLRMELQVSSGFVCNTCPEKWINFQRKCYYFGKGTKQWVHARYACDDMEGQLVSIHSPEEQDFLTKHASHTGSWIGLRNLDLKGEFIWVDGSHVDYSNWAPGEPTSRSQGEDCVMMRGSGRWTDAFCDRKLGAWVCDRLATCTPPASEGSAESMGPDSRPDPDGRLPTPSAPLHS
# B1: mPILRαR133A-Fc (Fc fusion)
# chain: not shown
# notes: Arg mutant of mPILRα-Fc; also called mPILRα133A-Fc; variant mPILRα (R133A); not shown: Fc of mouse IgG2a (PILRα-mIgG2a, called PILRα-Fc)
# B2: hPILRα-AP (other)
# chain: QPSGSTGSGPSYLYGVTQPKHLSASMGGSVEIPFSFYYPWELATAPDVRISWRRGHFHRQSFYSTRPPSIHKDYVNRLFLNWTEGQKSGFLRISNLQKQDQSVYFCRVELDTRSSGRQQWQSIEGTKLSITQAVTTTTQRPSSMTTTWRLSSTTTTTGLRVTQGKRRSDSWHISLET
# notes: Used as culture supernatant; also called human PILRα-AP; Alkaline phosphatase (AP)-tagged PILRα construct; not shown: C-terminal alkaline phosphatase (AP) tag
# What was measured:
# [1] = biological target: T7, human COLEC12 expressed on cells (human, UniProt Q5KU26 1-742); experiment: flow cytometry, transfected 293T cells, ligand-expressing cells gated
# T7 construct: also called hCOLEC12; C-terminal his tagged hCOLEC12
# T7 sequence (Q5KU26 whole entry S522P/G606S): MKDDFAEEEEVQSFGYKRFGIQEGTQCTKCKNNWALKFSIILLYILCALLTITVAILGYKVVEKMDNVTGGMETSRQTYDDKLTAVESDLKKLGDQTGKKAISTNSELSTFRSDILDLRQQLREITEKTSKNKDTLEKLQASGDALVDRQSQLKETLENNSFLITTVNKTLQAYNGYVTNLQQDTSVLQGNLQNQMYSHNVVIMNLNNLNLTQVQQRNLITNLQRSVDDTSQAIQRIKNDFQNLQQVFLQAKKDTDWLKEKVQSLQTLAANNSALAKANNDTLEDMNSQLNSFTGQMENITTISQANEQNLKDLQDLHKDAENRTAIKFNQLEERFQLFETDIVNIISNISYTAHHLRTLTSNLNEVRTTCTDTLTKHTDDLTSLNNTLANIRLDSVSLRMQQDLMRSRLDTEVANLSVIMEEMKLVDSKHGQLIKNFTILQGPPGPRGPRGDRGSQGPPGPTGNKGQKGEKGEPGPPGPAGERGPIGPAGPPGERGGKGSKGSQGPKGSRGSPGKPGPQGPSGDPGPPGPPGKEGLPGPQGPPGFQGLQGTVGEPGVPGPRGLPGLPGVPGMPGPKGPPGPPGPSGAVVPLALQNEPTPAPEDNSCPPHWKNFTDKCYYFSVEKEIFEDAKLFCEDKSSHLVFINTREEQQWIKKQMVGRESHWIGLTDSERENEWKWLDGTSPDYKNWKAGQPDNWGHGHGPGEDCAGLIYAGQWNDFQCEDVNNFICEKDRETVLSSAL
# [2] = biological target: T8, HSV1 glycoprotein B expressed on 293T cells (herpes simplex virus type 1, UniProt P10211 31-904); experiment: as above
# T8 construct: whole, on cells; also called HSV-1 gB; HSV1 gB
# [3] = biological target: T1, human NPDC1 expressed on cells; experiment: as above
# [4] = biological target: T2, mouse CD99 expressed on 293T cells; experiment: as above
# [5] = biological target: T3, CLEC4G expressed on cells; experiment: flow cytometry, transfected 293T cells
# MAG expressed on cells = biological target: T4, MAG expressed on cells; experiment: cDNA expression library screen with PILRα-AP supernatant on COS7 transfectants; positive clones further analysed by FACS
# Protocol: (§1) COS7 cells were plated in a 24-well format and transfected with 10 ul of Origene library DNA (Origene, human DNA library containing 20 k genes) per well with Fugene 6 Reagent. Two days later, cells were incubated with human or mouse PILRα-Ap supernatants for 45 min at room temperature (RT). Then cells were fixed with 4% PFA for 15 min at RT. After removing fixation buffer, cells were blocked with 100 mM Glycine in HBS (20 mM Hepes, PH7.2, 150 mM NaCl) for 15 min at RT. Cells were then rinsed and incubated in HBS for 90 min at 65° C. HBS was removed and Western Blue Substrate (Promega) was added and color was developed for 30 min to 1 hr.
# [6] = biological target: T5, IL-2Ra expressed on cells; experiment: as above
# Protocol: as §1
# [7] = biological target: T6, FceRII expressed on cells; experiment: as above
# Protocol: as §1
# [8] = biological target: T7, human COLEC12 expressed on cells; experiment: AP staining of transfected COS7 cells with AP fusion supernatant
# Protocol: (§2) 2931 cells were transfected with PILRα-AP-pRK5 constructs and Fugene 6 Transfection Reagent (Roche) according to the manufacturer's instructions. Three days after transfection, supernatants were collected for screening. COS7 cells were plated in a 24-well format and transfected with 10 ul of Origene library DNA (Origene, human DNA library containing 20 k genes) per well with Fugene 6 Reagent. Two days later, cells were incubated with human or mouse PILRα-Ap supernatants for 45 min at room temperature (RT). Then cells were fixed with 4% PFA for 15 min at RT. After removing fixation buffer, cells were blocked with 100 mM Glycine in HBS (20 mM Hepes, PH7.2, 150 mM NaCl) for 15 min at RT. Cells were then rinsed and incubated in HBS for 90 min at 65° C. HBS was removed and Western Blue Substrate (Promega) was added and color was developed for 30 min to 1 hr.
# [9] = biological target: T1, human NPDC1 expressed on cells; experiment: as above
# Protocol: as §2
Binder,binding result [1],binding result [2],binding result [3],binding result [4],binding result [5],binding result (MAG expressed on cells),binding result [6],binding result [7],binding result [8],binding result [9]
B1,no binding,no binding,no binding,no binding,no binding (tested: 50 µg/ml),,,,,
B2,,,,,,binds,binds,binds,binds,binds
